System: Escherichia coli TOP10
Assay: shrunken log2 fold change of peptide-encoding DNA abundance (4.5 h post-induction vs induction); higher = less antimicrobial activity (less host growth inhibition)
Settings: time post-induction: 4.5 h; library: site-saturation at positions 5, 18, 19, 20
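Note: peptides expressed intracellularly from a pBAD plasmid library in pooled LB shake-flask culture, induced with 0.3% L-arabinose, DNA abundance read by NGS, three biological replicates, DESeq2 with apeglm shrinkage.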

## RRIRCRPPRLPRPRPRPVVCPRP
  shrunken log2 fold change: 0.113

## RRIRLRPPRLPRPRPRPNKAPRP
  shrunken log2 fold change: -0.0163

## RRIRERPPRLPRPRPRPWPIPRP
  shrunken log2 fold change: -0.679

## RRIRHRPPRLPRPRPRPERTPRP
  shrunken log2 fold change: 0.0203

## RRIRERPPRLPRPRPRPVTAPRP
  shrunken log2 fold change: -0.00991

## RRIRLRPPRLPRPRPRPWLQPRP
  shrunken log2 fold change: 0.0325

## RRIRRRPPRLPRPRPRPNQCPRP
  shrunken log2 fold change: -0.0957

## RRIRGRPPRLPRPRPRPPQRPRP
  shrunken log2 fold change: 0.97

## RRIRRRPPRLPRPRPRPVMMPRP
  shrunken log2 fold change: -0.0277

## RRIRERPPRLPRPRPRPMMTPRP
  shrunken log2 fold change: -0.067

## RRIRARPPRLPRPRPRPWQKPRP
  shrunken log2 fold change: -0.0111

## RRIRIRPPRLPRPRPRPPENPRP
  shrunken log2 fold change: 0.0392

## RRIRDRPPRLPRPRPRPWIHPRP
  shrunken log2 fold change: -0.0487

## RRIRERPPRLPRPRPRPFKLPRP
  shrunken log2 fold change: -0.42

## RRIRWRPPRLPRPRPRPVTRPRP
  shrunken log2 fold change: -0.0273

## RRIRPRPPRLPRPRPRPYWRPRP
  shrunken log2 fold change: -0.106

## RRIRWRPPRLPRPRPRPRCQPRP
  shrunken log2 fold change: -0.0289

## RRIRFRPPRLPRPRPRPAFDPRP
  shrunken log2 fold change: 0.128

## RRIRDRPPRLPRPRPRPITQPRP
  shrunken log2 fold change: 0.000804

## RRIRGRPPRLPRPRPRPVSVPRP
  shrunken log2 fold change: 0.624

## RRIRERPPRLPRPRPRPFCKPRP
  shrunken log2 fold change: 0.0112

## RRIRDRPPRLPRPRPRPQMKPRP
  shrunken log2 fold change: -0.166

## RRIRVRPPRLPRPRPRPDCKPRP
  shrunken log2 fold change: -0.104

## RRIRERPPRLPRPRPRPRWTPRP
  shrunken log2 fold change: 0.0925

## RRIRVRPPRLPRPRPRPKETPRP
  shrunken log2 fold change: 0.0161

## RRIRYRPPRLPRPRPRPNQPPRP
  shrunken log2 fold change: -0.0705

## RRIRSRPPRLPRPRPRPKKEPRP
  shrunken log2 fold change: 0.00678

## RRIRPRPPRLPRPRPRPPLLPRP
  shrunken log2 fold change: 0.081

## RRIRFRPPRLPRPRPRPWWGPRP
  shrunken log2 fold change: -0.00459

## RRIRPRPPRLPRPRPRPIIHPRP
  shrunken log2 fold change: -0.707

## RRIRFRPPRLPRPRPRPHMAPRP
  shrunken log2 fold change: -0.429

## RRIRIRPPRLPRPRPRPWIRPRP
  shrunken log2 fold change: -0.156

## RRIRCRPPRLPRPRPRPRYKPRP
  shrunken log2 fold change: -0.141

## RRIRERPPRLPRPRPRPKAFPRP
  shrunken log2 fold change: 0.0124

## RRIRQRPPRLPRPRPRPMCPPRP
  shrunken log2 fold change: 0.00821

## RRIRGRPPRLPRPRPRPAKDPRP
  shrunken log2 fold change: 1.84

## RRIRKRPPRLPRPRPRPCFQPRP
  shrunken log2 fold change: -0.112

## RRIRPRPPRLPRPRPRPGINPRP
  shrunken log2 fold change: -0.178

## RRIRERPPRLPRPRPRPTHEPRP
  shrunken log2 fold change: 0.317

## RRIRNRPPRLPRPRPRPKVKPRP
  shrunken log2 fold change: -0.196

## RRIRQRPPRLPRPRPRPAIMPRP
  shrunken log2 fold change: -0.159

## RRIRARPPRLPRPRPRPFSPPRP
  shrunken log2 fold change: -0.342

## RRIRTRPPRLPRPRPRPFLLPRP
  shrunken log2 fold change: -0.743

## RRIRNRPPRLPRPRPRPYRFPRP
  shrunken log2 fold change: -0.00669

## RRIRNRPPRLPRPRPRPIWCPRP
  shrunken log2 fold change: -0.0833

## RRIRARPPRLPRPRPRPSDLPRP
  shrunken log2 fold change: -0.073

## RRIRYRPPRLPRPRPRPENTPRP
  shrunken log2 fold change: -0.879

## RRIRRRPPRLPRPRPRPLWCPRP
  shrunken log2 fold change: 0.186

## RRIRTRPPRLPRPRPRPCEWPRP
  shrunken log2 fold change: 0.013

## RRIRGRPPRLPRPRPRPSPIPRP
  shrunken log2 fold change: 0.411

## RRIRDRPPRLPRPRPRPFSGPRP
  shrunken log2 fold change: -0.214

## RRIRFRPPRLPRPRPRPEFNPRP
  shrunken log2 fold change: -0.199

## RRIRWRPPRLPRPRPRPCIHPRP
  shrunken log2 fold change: -0.0458

## RRIRHRPPRLPRPRPRPIHWPRP
  shrunken log2 fold change: -0.0298

## RRIRPRPPRLPRPRPRPIGGPRP
  shrunken log2 fold change: 0.00483

## RRIRSRPPRLPRPRPRPCFIPRP
  shrunken log2 fold change: -0.688

## RRIRLRPPRLPRPRPRPSAQPRP
  shrunken log2 fold change: 0.0425

## RRIRTRPPRLPRPRPRPMPSPRP
  shrunken log2 fold change: -0.128

## RRIRGRPPRLPRPRPRPFCSPRP
  shrunken log2 fold change: 0.143

## RRIRYRPPRLPRPRPRPPAIPRP
  shrunken log2 fold change: -0.319

## RRIRRRPPRLPRPRPRPCAEPRP
  shrunken log2 fold change: 0.393

## RRIRMRPPRLPRPRPRPQWMPRP
  shrunken log2 fold change: 0.109

## RRIRWRPPRLPRPRPRPQEQPRP
  shrunken log2 fold change: 0.0647

## RRIRQRPPRLPRPRPRPAWMPRP
  shrunken log2 fold change: 0.0361

## RRIRWRPPRLPRPRPRPCVQPRP
  shrunken log2 fold change: 2.8

## RRIRYRPPRLPRPRPRPGHWPRP
  shrunken log2 fold change: -0.135

## RRIRCRPPRLPRPRPRPPNQPRP
  shrunken log2 fold change: 0.107

## RRIRVRPPRLPRPRPRPCEKPRP
  shrunken log2 fold change: -0.0491

## RRIRNRPPRLPRPRPRPPEFPRP
  shrunken log2 fold change: -0.144

## RRIRMRPPRLPRPRPRPSNCPRP
  shrunken log2 fold change: -0.376

## RRIRPRPPRLPRPRPRPCINPRP
  shrunken log2 fold change: -0.726

## RRIRARPPRLPRPRPRPTHKPRP
  shrunken log2 fold change: 0.577

## RRIRDRPPRLPRPRPRPQFHPRP
  shrunken log2 fold change: -0.438

## RRIRNRPPRLPRPRPRPTHFPRP
  shrunken log2 fold change: -0.659

## RRIRNRPPRLPRPRPRPHFFPRP
  shrunken log2 fold change: 3.33

## RRIRSRPPRLPRPRPRPSAWPRP
  shrunken log2 fold change: 0.555

## RRIRFRPPRLPRPRPRPWNMPRP
  shrunken log2 fold change: -0.24

## RRIRVRPPRLPRPRPRPVPLPRP
  shrunken log2 fold change: -0.121

## RRIRGRPPRLPRPRPRPYIQPRP
  shrunken log2 fold change: -0.411

## RRIRYRPPRLPRPRPRPTPFPRP
  shrunken log2 fold change: -0.27

## RRIRQRPPRLPRPRPRPFFWPRP
  shrunken log2 fold change: 0.314

## RRIRFRPPRLPRPRPRPHTEPRP
  shrunken log2 fold change: -0.731

## RRIRDRPPRLPRPRPRPQSKPRP
  shrunken log2 fold change: -0.0457

## RRIRDRPPRLPRPRPRPMMIPRP
  shrunken log2 fold change: 0.0818

## RRIRHRPPRLPRPRPRPCSKPRP
  shrunken log2 fold change: -0.0875

## RRIRFRPPRLPRPRPRPPGMPRP
  shrunken log2 fold change: 0.461

## RRIRQRPPRLPRPRPRPNDYPRP
  shrunken log2 fold change: -0.179

## RRIRGRPPRLPRPRPRPLYWPRP
  shrunken log2 fold change: -0.169

## RRIRCRPPRLPRPRPRPQFKPRP
  shrunken log2 fold change: -0.562

## RRIRPRPPRLPRPRPRPMFMPRP
  shrunken log2 fold change: 0.0765

## RRIRCRPPRLPRPRPRPCNKPRP
  shrunken log2 fold change: -0.671

## RRIRLRPPRLPRPRPRPKWWPRP
  shrunken log2 fold change: 0.396

## RRIRRRPPRLPRPRPRPVCNPRP
  shrunken log2 fold change: 0.181

## RRIRRRPPRLPRPRPRPWMDPRP
  shrunken log2 fold change: -0.196

## RRIRPRPPRLPRPRPRPETNPRP
  shrunken log2 fold change: 0.192

## RRIRTRPPRLPRPRPRPHNHPRP
  shrunken log2 fold change: -0.802

## RRIRFRPPRLPRPRPRPWGLPRP
  shrunken log2 fold change: -0.168

## RRIRIRPPRLPRPRPRPAFWPRP
  shrunken log2 fold change: 0.15

## RRIRNRPPRLPRPRPRPLPNPRP
  shrunken log2 fold change: -0.0288

## RRIRTRPPRLPRPRPRPRQTPRP
  shrunken log2 fold change: 0.0617

## RRIRQRPPRLPRPRPRPQNVPRP
  shrunken log2 fold change: -0.0161

## RRIRCRPPRLPRPRPRPYMYPRP
  shrunken log2 fold change: -0.912

## RRIRHRPPRLPRPRPRPTYSPRP
  shrunken log2 fold change: -0.489

## RRIRSRPPRLPRPRPRPMYFPRP
  shrunken log2 fold change: -0.229

## RRIRRRPPRLPRPRPRPSLVPRP
  shrunken log2 fold change: 0.243

## RRIRIRPPRLPRPRPRPSAIPRP
  shrunken log2 fold change: -0.0599

## RRIRNRPPRLPRPRPRPTDFPRP
  shrunken log2 fold change: -0.164

## RRIRCRPPRLPRPRPRPFWYPRP
  shrunken log2 fold change: -0.353

## RRIRKRPPRLPRPRPRPRWQPRP
  shrunken log2 fold change: 0.189

## RRIRCRPPRLPRPRPRPRSKPRP
  shrunken log2 fold change: 0.0908

## RRIRKRPPRLPRPRPRPEYRPRP
  shrunken log2 fold change: 0.012

## RRIRQRPPRLPRPRPRPCMKPRP
  shrunken log2 fold change: -0.0118

## RRIRLRPPRLPRPRPRPPEGPRP
  shrunken log2 fold change: 0.662

## RRIRFRPPRLPRPRPRPVYTPRP
  shrunken log2 fold change: -1.09

## RRIRIRPPRLPRPRPRPYATPRP
  shrunken log2 fold change: -0.334

## RRIRRRPPRLPRPRPRPLIGPRP
  shrunken log2 fold change: -0.0159

## RRIRARPPRLPRPRPRPESRPRP
  shrunken log2 fold change: 0.147

## RRIRYRPPRLPRPRPRPRGMPRP
  shrunken log2 fold change: -0.019

## RRIRYRPPRLPRPRPRPFLQPRP
  shrunken log2 fold change: -0.218

## RRIRMRPPRLPRPRPRPFTDPRP
  shrunken log2 fold change: 0.174

## RRIRCRPPRLPRPRPRPINSPRP
  shrunken log2 fold change: -0.389

## RRIRYRPPRLPRPRPRPYPDPRP
  shrunken log2 fold change: -0.0152

## RRIRSRPPRLPRPRPRPYPPPRP
  shrunken log2 fold change: -0.377

## RRIRCRPPRLPRPRPRPQTKPRP
  shrunken log2 fold change: 0.146

## RRIRNRPPRLPRPRPRPQQDPRP
  shrunken log2 fold change: -0.38
